Our source for the measurement limit values is patent WO2001077362A1.

This assay concerns the target purified soluble human HM1.24 antigen (HA-tagged, from soluble human HM1.24 antigen-expressing CHO cells) (human). Description: sandwich ELISA with purified antigen at 5000-fold dilution (about 76.4 ng/mL) captured by anti-HA antibody; lowest measurable antibody concentration. A general note: ELISA stands for enzyme-linked immunosorbent assay.

Take “reshaped human anti-HM1.24 antibody (humanized anti-HM1.24 antibody), light chain version a and heavy chain version s”: the measurement limit was found to be 500 pg/mL.
